In the test the target is recombinant LHCII (major light-harvesting complex), Lhcb1*2 (AB80) derivative with N-terminal Cys-Cys-Cys motif, C79S and C-terminal His6 tag (pea (Pisum sativum)). Briefly: sucrose density gradient ultracentrifugation; reconstituted monomers trimerized by His6 tag on Ni2+-sepharose columns, then sucrose density gradient (500 mM sucrose, 10 mM Tris-HCl pH 7.5, 5 mM TCEP, 0.05% (w/v) Triton X-100); trimer band collected and checked by CD (negative peak at 474 nm).

For the substance “recombinant LHCII (major light-harvesting complex), Lhcb1*2 (AB80) derivative with N-terminal Cys-Cys-Cys motif, C79S and C-terminal His6 tag (natural protein)”, the stoichiometry N – broadly, the number of molecules, sites or subunits per partner or assembly – was found to be 3.

The values above are taken from publication PMC5505961.
